target: Gagpol MAPPIT prey (pMG2-Gagpol); assay: MAPPIT; details: not given

How did the percent of parent turn out when “Apobec3G-GFP MAPPIT bait (pCEL-Apobec3G-GFP) (from UniProt Q9HC16) D128G” was run?
The percent of parent was 11 % of WT.

“Apobec3G-GFP MAPPIT bait (pCEL-Apobec3G-GFP) (from UniProt Q9HC16) E191V” was tested. Which percent of parent did it give?
Its percent of parent is 8 % of WT.

Which percent of parent does the source give for “Apobec3G-GFP MAPPIT bait (pCEL-Apobec3G-GFP) (from UniProt Q9HC16) N20D” here?
The percent of parent was 22 % of WT.

Which percent of parent does the source give for “Apobec3G-GFP MAPPIT bait (pCEL-Apobec3G-GFP) (from UniProt Q9HC16) R30L” here?
Its percent of parent is 5 % of WT.

Which percent of parent does the source give for “Apobec3G-GFP MAPPIT bait (pCEL-Apobec3G-GFP) (from UniProt Q9HC16) R122C” here?
The percent of parent was 5 % of WT.

With “Apobec3G-GFP MAPPIT bait (pCEL-Apobec3G-GFP) (from UniProt Q9HC16) R136S” as the substance, how does the percent of parent read?
The percent of parent was 24 % of WT.

With “Apobec3G-GFP MAPPIT bait (pCEL-Apobec3G-GFP) (from UniProt Q9HC16) W94R” as the substance, how does the percent of parent read?
Its percent of parent is 13 % of WT.

target: Gag MAPPIT prey (pMG2-Gag); assay: MAPPIT; details: stimulation with Epo; parent: est. 38; read off a plot

For “Apobec3G MAPPIT bait (pCEL-Apobec3G) (from UniProt Q9HC16) YFW125-127DY”, which response (fold induction) is on record?
The response (fold induction) was 2.2.

target: Gagpol MAPPIT prey (pMG2-Gagpol); assay: MAPPIT; details: not given; remark: another data set of the same source

“Apobec3G-GFP MAPPIT bait (pCEL-Apobec3G-GFP) (from UniProt Q9HC16) H81L” was tested. Which percent of parent did it give?
Its percent of parent is 33 % of WT.

With “Apobec3G-GFP MAPPIT bait (pCEL-Apobec3G-GFP) (from UniProt Q9HC16) K79M” as the substance, how does the percent of parent read?
The percent of parent was 32 % of WT.

“Apobec3G-GFP MAPPIT bait (pCEL-Apobec3G-GFP) (from UniProt Q9HC16) K270E” was tested. Which percent of parent did it give?
Its percent of parent is 67 % of WT.

“Apobec3G-GFP MAPPIT bait (pCEL-Apobec3G-GFP) (from UniProt Q9HC16) Q237K” was tested. Which percent of parent did it give?
Its percent of parent is 46 % of WT.

Which percent of parent does the source give for “Apobec3G-GFP MAPPIT bait (pCEL-Apobec3G-GFP) (from UniProt Q9HC16) R30L” here?
Its percent of parent is 5 % of WT.

With “Apobec3G-GFP MAPPIT bait (pCEL-Apobec3G-GFP) (from UniProt Q9HC16) R78W” as the substance, how does the percent of parent read?
The percent of parent was 6 % of WT.

For “Apobec3G-GFP MAPPIT bait (pCEL-Apobec3G-GFP) (from UniProt Q9HC16) R238C”, which percent of parent is on record?
The percent of parent was 56 % of WT.

How did the percent of parent turn out when “Apobec3G-GFP MAPPIT bait (pCEL-Apobec3G-GFP) (from UniProt Q9HC16) W269G” was run?
Its percent of parent is 33 % of WT.

For “Apobec3G-GFP MAPPIT bait (pCEL-Apobec3G-GFP) (from UniProt Q9HC16) Y222N”, which percent of parent is on record?
The percent of parent was 6 % of WT.

Reference: PMC3438196
